The values below come from patent US20080193964A1, “Compositions and methods for regulation of calcium-dependent signaling in brain” (priority 2002, published 2008).

For one test, the system named is DARPP-21 phosphorylation. Particulars: treatment of mice; cited from earlier work.
The target in test [1] is T1, calmodulin (Rattus norvegicus, UniProt P0DP29).
T1 construct: host or cells: yeast strain EGY48
As to the kind of experiment: Yeast two-hybrid protein-protein binding assay. Particulars: yeast strain EGY48; FIG. 2. How it is done: Protein-protein binding assays were performed in a yeast two-hybrid system using the DupLexA system (Origene Technologies, Rockville, Md.) in yeast strain EGY48. To generate a fusion protein of LexA and DARPP-21, DARPP-21 cDNA was subcloned into EcoRI-XhoI sites of pEG202 bait vector. Prey vector contained oligo-dT primed rat brain library (Origene Technologies, Rockville, Md.) attached to the B42 acid blob domain and governed by a gal-1 promoter.
Yeast were sequentially transformed with the bait, pSH18-34 lacZ-harboring prey cDNA library-containing plasmids using the lithium acetate protocol. Efficiency of transformation was estimated to be 10^6 with a library complexity of 4×10^6 individual clones. Positive clones appeared 3 to 7 days after transformation. Bait-prey interaction was assessed by intensity of growth on a (gal)(-his, -trp, -ura, -leu) medium. Specificity of the interaction was verified by X-gal staining and mating assay (Origene Technologies, Rockville, Md.).
To confirm calmodulin-DARPP-21 interactions and compare calmodulin binding to DARPP-21 mutants, EGY48 yeast cells were transformed with the bait, prey and lacZ reporter plasmids and plated onto (glu)(-his, -trp, -ura) plates. Four days later, selected colonies were transferred into a liquid (+raf)(-his, -trp, -ura) medium and grown overnight at 30 C with vigorous shaking. […]

A further test relates to calcineurin. As to the kind of experiment: In vitro inhibition of calcineurin phosphatase activity. It is filed as biochemical. How it is done: (§1) For preparations of phosphorylated DARPP-21, the protein was phosphorylated in vitro using [γ-^32P]ATP with the catalytic subunit of PKA as described (Caporaso et al. 2000. Neuropharmacology 39:1636-1643). The stoichiometry of phosphorylation was determined to be 95% for DARPP-21.
(§2) DARPP-21 was phosphorylated as described in Section 6.1. In vitro inhibition studies on the kinase and phosphatase activities of CaMKI and calcineurin, respectively, were performed according to standard techniques in the art.

Another test has as its system CaMKI. As to the kind of experiment: In vitro inhibition of CaMKI kinase activity. In kind it is biochemical. How it is done:
as §1, §2

Test [2] addresses T2, calmodulin (Bos taurus, UniProt P62157).
T2 construct: purchased Amersham Pharmacia Biotech
As to the kind of experiment: Affinity chromatography using calmodulin-Sepharose. It is filed as binding. Conditions: 0.5 mM CaCl2 buffer versus 1 mM EGTA buffer; FIG. 5. How it is done: DARPP-21 (0.5 ml of 0.1 mg/ml) was applied to 0.5 ml of 1 mg/ml calmodulin-Sepharose (Amersham Pharmacia Biotech, Piscataway, N.J.) in buffer B (100 mM NaCl, 20 mM Tris pH 7.5, 1 mM MgCl2, 0.5 mM CaCl2, 1 mM DTT) or buffer C containing 1 mM EGTA instead of 0.5 mM CaCl2. Beads were washed with several volumes of buffer D containing 300 mM NaCl and 20 mM Tris pH 7.5 and bound proteins were eluted with 10 mM EGTA/20 mM Tris pH 7.5.

[3] abbreviates: same concentration as phosphorylated DARPP-21.

As to `CN[C@@H](C)Cc1ccccc1` [methamphetamine], the “DARPP-21 phosphorylation in vivo” value in the test on DARPP-21 phosphorylation is “increased”.

B1: Ser^55 to alanine in DARPP-21: DARPP-21 mutant with Ala substitution for Ser^55, LexA fusion in yeast (protein, UniProt Q9UBL0 2-812, looked up, variant S55A)
cAMP-regulated phosphoprotein …: SEQGDLNQAIAEEGGTEQETATPENGIVKSESLDEEEKLELQRRLEAQNQERRKAKSGAGKGKLTRSLAVCEESSARPGGESLQDQESIHLQLSSFSSLQEEDKSRKDDSEREKEKDKNKDKTSEKPKIRMLSKDCSQEYTDSTGIDLHEFLINTLKNNSRDRMILLKMEQEIIDFIADNNNHYKKFPQMSSYQRMLVHRVAAYFGLDHNVDQTGKSVIINKTSSTRIPEQRFCEHLKDEKGEESQKRFILKRDNSSIDKEDNQQNRMHPFRDDRRSKSIEEREEEYQRVRERIFAHDSVCSQESLFVENSRLLEDSNICNETYKKRQLFRGNRDGSGRTSGSRQSSSENELKWSDHQRAWSSTDSDSSNRNLKPAMTKTASFGGITVLTRGDSTSSTRSTGKLSKAGSESSSSAGSSGSLSRTHPPLQSTPLVSGVAAGSPGCVPYPENGIGGQVAPSSTSYILLPLEAATGIPPGSILLNPHTGQPFVNPDGTPAIYNPPTSQQPLRSAMVGQSQQQPPQQQPSPQPQQQVQPPQPQMAGPLVTQRDDVATQFGQMTLSRQSSGETPEPPSGPVYPSSLMPQPAQQPSYVIASTGQQLPTGGFSGSGPPISQQVLQPPPSPQGFVQQPPPAQMPVYYYPSGQYPTSTTQQYRPMAPVQYNAQRSQQMPQAAQQAGYQPVLSGQQGFQGLIGVQQPPQSQNVINNQQGTPVQSVMVSYPTMSSYQVPMTQGSQGLPQQSYQQPIMLPNQAGQGSLPATGMPVYCNVTPPTPQNNLRLIGPHCPSSTVPVMSASCRTNCASMSNAGWQVKF
modifications: LexA fusion
notes: DARPP-21 mutant with Ala substitution for Ser^55, LexA fusion in yeast
Turning to B1, in the test with calmodulin [1], the “interaction with calmodulin in yeast” value was “completely inhibited the interaction with calmodulin”.

B2: unphosphorylated DARPP-21: neuronal 21 kDa dopamine- and cAMP-regulated phosphoprotein, not phosphorylated (protein, UniProt Q9UBL0 2-812, looked up)
cAMP-regulated phosphoprotein …: SEQGDLNQAIAEEGGTEQETATPENGIVKSESLDEEEKLELQRRLEAQNQERRKSKSGAGKGKLTRSLAVCEESSARPGGESLQDQESIHLQLSSFSSLQEEDKSRKDDSEREKEKDKNKDKTSEKPKIRMLSKDCSQEYTDSTGIDLHEFLINTLKNNSRDRMILLKMEQEIIDFIADNNNHYKKFPQMSSYQRMLVHRVAAYFGLDHNVDQTGKSVIINKTSSTRIPEQRFCEHLKDEKGEESQKRFILKRDNSSIDKEDNQQNRMHPFRDDRRSKSIEEREEEYQRVRERIFAHDSVCSQESLFVENSRLLEDSNICNETYKKRQLFRGNRDGSGRTSGSRQSSSENELKWSDHQRAWSSTDSDSSNRNLKPAMTKTASFGGITVLTRGDSTSSTRSTGKLSKAGSESSSSAGSSGSLSRTHPPLQSTPLVSGVAAGSPGCVPYPENGIGGQVAPSSTSYILLPLEAATGIPPGSILLNPHTGQPFVNPDGTPAIYNPPTSQQPLRSAMVGQSQQQPPQQQPSPQPQQQVQPPQPQMAGPLVTQRDDVATQFGQMTLSRQSSGETPEPPSGPVYPSSLMPQPAQQPSYVIASTGQQLPTGGFSGSGPPISQQVLQPPPSPQGFVQQPPPAQMPVYYYPSGQYPTSTTQQYRPMAPVQYNAQRSQQMPQAAQQAGYQPVLSGQQGFQGLIGVQQPPQSQNVINNQQGTPVQSVMVSYPTMSSYQVPMTQGSQGLPQQSYQQPIMLPNQAGQGSLPATGMPVYCNVTPPTPQNNLRLIGPHCPSSTVPVMSASCRTNCASMSNAGWQVKF
As for B2, the “effect on calcineurin activity” value in the test on calcineurin (setting [3]) is reported as “no effect”. Moreover, the “effect on CaMKI activity” value with CaMKI (setting [3]) is recorded as “no effect”.

B3: Phosphorylated DARPP-21: DARPP-21 phosphorylated in vitro with the catalytic subunit of PKA (protein, UniProt Q9UBL0 2-812, looked up)
cAMP-regulated phosphoprotein …: SEQGDLNQAIAEEGGTEQETATPENGIVKSESLDEEEKLELQRRLEAQNQERRKSKSGAGKGKLTRSLAVCEESSARPGGESLQDQESIHLQLSSFSSLQEEDKSRKDDSEREKEKDKNKDKTSEKPKIRMLSKDCSQEYTDSTGIDLHEFLINTLKNNSRDRMILLKMEQEIIDFIADNNNHYKKFPQMSSYQRMLVHRVAAYFGLDHNVDQTGKSVIINKTSSTRIPEQRFCEHLKDEKGEESQKRFILKRDNSSIDKEDNQQNRMHPFRDDRRSKSIEEREEEYQRVRERIFAHDSVCSQESLFVENSRLLEDSNICNETYKKRQLFRGNRDGSGRTSGSRQSSSENELKWSDHQRAWSSTDSDSSNRNLKPAMTKTASFGGITVLTRGDSTSSTRSTGKLSKAGSESSSSAGSSGSLSRTHPPLQSTPLVSGVAAGSPGCVPYPENGIGGQVAPSSTSYILLPLEAATGIPPGSILLNPHTGQPFVNPDGTPAIYNPPTSQQPLRSAMVGQSQQQPPQQQPSPQPQQQVQPPQPQMAGPLVTQRDDVATQFGQMTLSRQSSGETPEPPSGPVYPSSLMPQPAQQPSYVIASTGQQLPTGGFSGSGPPISQQVLQPPPSPQGFVQQPPPAQMPVYYYPSGQYPTSTTQQYRPMAPVQYNAQRSQQMPQAAQQAGYQPVLSGQQGFQGLIGVQQPPQSQNVINNQQGTPVQSVMVSYPTMSSYQVPMTQGSQGLPQQSYQQPIMLPNQAGQGSLPATGMPVYCNVTPPTPQNNLRLIGPHCPSSTVPVMSASCRTNCASMSNAGWQVKF
modifications: phospho-Ser55
notes: DARPP-21 phosphorylated in vitro with the catalytic subunit of PKA
Usually IC50 stands for the concentration that gives 50% inhibition. As for B3, the IC50 stood at 1000 nM at calcineurin (in vitro, FIG. 7) and 1200 nM at CaMKI (in vitro, FIG. 6).

B4: DARPP-21: neuronal 21 kDa dopamine- and cAMP-regulated phosphoprotein (protein, UniProt Q9UBL0 2-812, looked up)
cAMP-regulated phosphoprotein …: SEQGDLNQAIAEEGGTEQETATPENGIVKSESLDEEEKLELQRRLEAQNQERRKSKSGAGKGKLTRSLAVCEESSARPGGESLQDQESIHLQLSSFSSLQEEDKSRKDDSEREKEKDKNKDKTSEKPKIRMLSKDCSQEYTDSTGIDLHEFLINTLKNNSRDRMILLKMEQEIIDFIADNNNHYKKFPQMSSYQRMLVHRVAAYFGLDHNVDQTGKSVIINKTSSTRIPEQRFCEHLKDEKGEESQKRFILKRDNSSIDKEDNQQNRMHPFRDDRRSKSIEEREEEYQRVRERIFAHDSVCSQESLFVENSRLLEDSNICNETYKKRQLFRGNRDGSGRTSGSRQSSSENELKWSDHQRAWSSTDSDSSNRNLKPAMTKTASFGGITVLTRGDSTSSTRSTGKLSKAGSESSSSAGSSGSLSRTHPPLQSTPLVSGVAAGSPGCVPYPENGIGGQVAPSSTSYILLPLEAATGIPPGSILLNPHTGQPFVNPDGTPAIYNPPTSQQPLRSAMVGQSQQQPPQQQPSPQPQQQVQPPQPQMAGPLVTQRDDVATQFGQMTLSRQSSGETPEPPSGPVYPSSLMPQPAQQPSYVIASTGQQLPTGGFSGSGPPISQQVLQPPPSPQGFVQQPPPAQMPVYYYPSGQYPTSTTQQYRPMAPVQYNAQRSQQMPQAAQQAGYQPVLSGQQGFQGLIGVQQPPQSQNVINNQQGTPVQSVMVSYPTMSSYQVPMTQGSQGLPQQSYQQPIMLPNQAGQGSLPATGMPVYCNVTPPTPQNNLRLIGPHCPSSTVPVMSASCRTNCASMSNAGWQVKF
With B4, the “binding to calmodulin-Sepharose” value with calmodulin [2] is “detected only in the calcium-equilibrated column”.
